We go through 2 molecules from paper PMC11931385, “Structural and functional analysis of cancer-associated missense variants in the retinoblastoma protein pocket domain” (The Journal of Biological Chemistry, 2025).

Where a chain is given by its changes, count along the chain named. Names may count otherwise. No end group written: not given here. TMR = tetramethyl rhodamine dye

Assay in all cases: fluorescence polarisation; 37 °C, after the 25 °C reading ramped over 7 min to 37 °C and 2 min incubation; unlabeled Rb^P against 1.5 nM TMR-E2F1^TD or 7.5 nM TMR-E7^LxCxE; 25 mM Tris pH 8.0, 200 mM NaCl, 1 mM DTT, 0.1% Tween-20; apparent Kd
Holding throughout (details): both partners purified

For one assay, the target named is T1, Rb^P S474R (human, UniProt P06400 380-788, S474R).
T1 construct: also called variant 13
T1 sequence (looked up): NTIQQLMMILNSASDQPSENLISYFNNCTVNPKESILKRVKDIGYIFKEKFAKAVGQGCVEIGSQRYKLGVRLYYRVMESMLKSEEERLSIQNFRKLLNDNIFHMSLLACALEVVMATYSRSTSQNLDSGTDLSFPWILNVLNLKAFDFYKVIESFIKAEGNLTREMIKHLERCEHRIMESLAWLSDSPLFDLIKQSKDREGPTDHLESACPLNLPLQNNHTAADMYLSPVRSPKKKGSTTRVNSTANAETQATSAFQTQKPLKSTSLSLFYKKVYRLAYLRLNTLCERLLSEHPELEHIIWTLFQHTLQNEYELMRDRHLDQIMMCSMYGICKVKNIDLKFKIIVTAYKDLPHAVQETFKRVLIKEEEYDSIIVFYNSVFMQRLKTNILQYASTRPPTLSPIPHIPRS

Another assay has as its target T2, Rb^P E675Q (human, UniProt P06400 380-788, E675Q).
T2 construct: also called variant 56
T2 sequence (looked up): T1 sequence (looked up) with R95S, E296Q

The target in the next assay is T3, Rb^P I679F (human, UniProt P06400 380-788, I679F).
T3 construct: also called variant 57
T3 sequence (looked up): T1 sequence (looked up) with R95S, I300F

The target of a further assay is T4, Rb^P R451H (human, UniProt P06400 380-788, R451H).
T4 construct: also called variant 6
T4 sequence (looked up): T1 sequence (looked up) with R72H, R95S

The target of the next assay is T5, Rb^P M761L (human, UniProt P06400 380-788, M761L).
T5 construct: also called variant 74
T5 sequence (looked up): T1 sequence (looked up) with R95S, M382L

B1: TMR-E2F1^TD, peptide of the E2F1 transactivation domain (peptide)
peptide: {TMR}-GEGIRDLFDCDFGDLTPLD
notes: also called E2F^TD; source: synthetic peptide, bought: GenScript
As for B1, the Kd in the assay with Rb^P S474R was determined as 580 nM; with Rb^P E675Q, 71 nM; with Rb^P I679F, 33 nM; with Rb^P R451H it was 56 nM; with Rb^P M761L, 68 nM.

B2: TMR-E7^LxCxE, LxCxE peptide of the E7 oncoprotein from HPV (peptide)
peptide: DLYCYEQLN
modifications: also: TMR label, position not given here
notes: source: synthetic peptide, bought: GenScript
With B2, the Kd in the assay with Rb^P S474R turned out to be 15 nM; with Rb^P E675Q it was 46 nM; in the assay with Rb^P I679F, 20 nM; in the assay with Rb^P R451H, 22 nM; in the assay with Rb^P M761L it was 5 nM.
